Test results reported in paper PMC9440762, “Anti-Stokes fluorescence excitation reveals conformational mobility of the C-phycocyanin chromophores” (Structural Dynamics, 2022).

T1: C-phycocyanin β subunit from Arthrospira platensis (Arthrospira platensis (Spirulina), UniProt P72508 1-172, phycocyanobilin covalently bound to the cysteines at positions 82 and 153)
T1 construct: C-phycocyanin β subunit, Arthrospira platensis (Spirulina); also called β C-PC chain
T1 sequence (looked up): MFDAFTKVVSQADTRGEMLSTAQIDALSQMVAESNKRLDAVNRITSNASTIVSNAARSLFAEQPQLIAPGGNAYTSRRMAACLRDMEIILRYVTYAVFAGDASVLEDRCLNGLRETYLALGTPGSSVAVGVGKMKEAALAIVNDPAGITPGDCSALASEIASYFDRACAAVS


Tests used:
[1] = target: the molecule itself; assay: SAXS; C-PC in solution at 150 mM NaCl; fits with trimer and hexamer models, MW estimate, ab initio shape by GASBOR; also at 4, 6 and 8 M urea (decrease in the oligomeric state, partial dissociation of trimers)
[2] = target: T1, C-phycocyanin β subunit from …; assay: SEC; preparative Superdex 200 26/600, 20 mM Tris-HCl pH 7.6, 150 mM NaCl; fractions of the main peak analysed by SDS-PAGE; conditions: both partners purified

Binder	stoichiometry N [1]	binding result [2]
C-phycocyanin αβ monomer (heterodimer of the α and β subunits) from Arthrospira platensis (complex, phycocyanobilin covalently bound to the cysteine at position 84 | phycocyanobilin covalently bound to the cysteines at positions 82 and 153, C-phycocyanin α subunit, Arthrospira platensis (Spirulina); band of apparent MW 16 or 18 kDa on SDS-PAGE; C-phycocyanin β subunit, Arthrospira platensis (Spirulina); The unit that associates with itself into the (αβ)3 trimer; Linker polypeptides are absent from the preparation; also called C-PC; PC) chain 1: not shown chain 2: MFDAFTKVVSQADTRGEMLSTAQIDALSQMVAESNKRLDAVNRITSNASTIVSNAARSLFAEQPQLIAPGGNAYTSRRMAACLRDMEIILRYVTYAVFAGDASVLEDRCLNGLRETYLALGTPGSSVAVGVGKMKEAALAIVNDPAGITPGDCSALASEIASYFDRACAAVS	3	
C-phycocyanin α subunit from Arthrospira platensis (natural protein, phycocyanobilin covalently bound to the cysteine at position 84, C-phycocyanin α subunit, Arthrospira platensis (Spirulina); also called α C-PC chain) not shown		binds
